Experiments:
[1] = test system: mesenchymal stem cells (osteoblast precursors); test: Transwell migration assay of calcein-loaded mesenchymal stem cells; assay type: cell-based
Protocol: Mesenchymal stem cells were loaded in the presence of 5 μM calcein in αMEM, and the cells washed twice with media. Cells were plated at 10,000 cells/well in the upper well of Neuroprobe transwell plates. The concentration dependence of mim-1 in migration assays was determined in the transwell migration assay with the indicated concentrations of mim-1 in the bottom chamber. Cells were cultured for 4 hours at 37° C. in a humidified chamber with 5% CO2. Remaining cells were scraped from the upper well and removed. Migration was measured on a fluorescence plate-reader which measures fluorescence in the bottom well and migration was quantified by comparisons with a standard curve generated by serial dilutions of calcein loaded cells plated directly in the bottom chamber. Data is from a single experiment performed in quadruplicate.

AD10, ovarian cancer = test: Cancer cell growth inhibition, cell counts; assay type: cell-based, human; details: AD10, three days, 0.5-4 μg/ml mim-1
Protocol: (§1) Cancer cells (A549, lung cancer; MDA231, Breast cancer; and AD10, ovarian cancer) were cultured for three days in the presence of the indicated concentrations of mim-1. Cells were counted in 10 random grids, and the data is plotted as Percent of Control (no added mim-1). Data are representative of 2 separate experiments.
(§2) Three cancer cell lines (A549, lung cancer; MDA231, breast cancer; and AD10, ovarian cancer) were cultured for three days in the presence of 0 (control), 0.5, 1, 2 and 4 μg/ml of mim-1. Cells were counted in 10 random grids, and the data is plotted as Percent of Control (no added mim-1).

A549, lung cancer = test: Cancer cell growth inhibition, cell counts; assay type: cell-based, human; details: A549, three days, 0.5-4 μg/ml mim-1
Protocol: as §1, §2

MDA231, breast cancer = test: Cancer cell growth inhibition, cell counts; assay type: cell-based, human; details: MDA231, three days, 0.5-4 μg/ml mim-1
Protocol: as §1, §2

[2] = test system: cbfal binding to osteocalcin promoter in MG63 cells; test: cbfal binding to osteocalcin promoter site, electrophoretic mobility shift assay; assay type: cell-based, human
Protocol: (§3) FIG. 17A show cells treated with 2 μg/ml of purified mim-1 for 0, 10, 30, 60, 120, and 240 min washed, lysed and nuclear extracts prepared. A 27 bp oligonucleotide from the osteocalcin proximal cbfal binding site was 5′ end labeled with γ^32P-ATP by T4 kinase. Equivalent amounts of nuclear extracts were incubated with the probe for 30 min and samples resolved on a 5% gel, fixed, dried and binding visualized by autoradiography.
as §3, with “Cells were treated” for “FIG. 17A show cells treated”, “240 min,” for “240 min”, “with ^32P-ATP” for “with γ^32P-ATP”, “by autoradiography for specific binding.” for “by autoradiography.”
Similarly, cells were treated with 0, 0.02, 0.3 and 2.0 μg/ml of mim-1 for 2 hrs and mobility shifts done as discussed.

MC3T3-E1 cells = test: In vitro matrix mineralization (VonKossa staining, total calcium); assay type: cell-based; details: 16 days
Protocol: MC3T3-E1 cells (2.5×10^4 cells/well) were cultured in DMEM/F12 plus 1% FBS in the presence of 10 mM glycerophosphate, 50 μg/ml ascorbic acid and either, 0, 3 or 15 nM (FIGS. 19A–C, respectively) of purified mim-1 for 16 days. […] 200× magnification, data is representative of n=2 experiments. VonKossa staining was confirmed by measuring total calcium in each well. Calcium was acid hydrolyzed, neutralized and measured on a Kodak Ektachem DTSC II and the results illustrated in the bar graph at the right. Calcium measurements are representative single determinations from 2 separate experiments.
MC3T3-E1 cells, seeded at 2.5×10^4 cells/well, were cultured in DMEM/F12 plus 1% FBS in the presence of 10 mM glycerophosphate, 50 μg/ml ascorbic acid and either 0, 3 or 15 nM of purified mim-1 for 16 days. […] VonKossa staining was confirmed by measuring total calcium in each well. The calcium was acid hydrolyzed, neutralized and measured on a Kodak Ektachem DTSC II.

[3] = test system: p42/44 MAP-kinase in MG63 cells; test: p42/p44 MAP kinase activation, phospho-specific Western blot; assay type: cell-based, human
Protocol: Cells were treated with 2 μg/ml of purified mim-1 for the indicated times, washed, lysed and 25 […] protein resolved on 10% SDS PAGE. Protein was transferred to PVDF membrane and the membranes probed with phospho-specific p42/p44 MAP kinase antibody (New England Biolabs).
Mim-1 also stimulated the increased p42/44 MAP-kinase phosphorylation in a time-dependent manner in MG63 cells. The time dependence of mim-1 activation of MAP kinase by Western analysis with the phospho specific MAP kinase antibody was tested. This antibody detects only the phosphorylated (activated) form of MAP kinase (FIG. 16). Mim-1 stimulates the time dependent activation of MAP kinase with maximal effects at 3 minutes (compare this with 2 μg/ml in FIG. 15). The concentration dependence for activation of MAP kinase was maximal at 1–2 μg/ml (not shown) similar to the effects of mim-1 on tyrosine phosphorylation (FIG. 15).

mouse marrow macrophage = test: Osteoclast-like cell differentiation, mouse marrow macrophage differentiation model; assay type: cell-based; details: presence of M-CSF and soluble RANKL
mesenchymal stem cells = test: Cell proliferation of osteoblast precursor cells; assay type: cell-based; details: concentrations up to 2 μg/ml
[4] = test system: Vitamin D receptor binding to the VDRE in MG63 cells; test: Vitamin D receptor binding to the VDRE, electrophoretic mobility shift assay; assay type: cell-based, human; details: 2 μg/ml mim-1, absence of added 1,25(OH)2 D3
Protocol: Competitive displacement (CD) of vitamin D receptor interaction by 100× of cold probe. […] CD is competitive displacement as in FIG. 18A and NS is incubaton with 100× NonSpecific probe (vitellogenin estrogen response element), both were included as controls with 2 hr mim-1 extracts.
Double stranded oligonucleotide probe, corresponding to the VDRE from the human osteocalcin promoter, is ^32P-labeled with T4 kinase and incubated with nuclear extracts from MG-63 cells treated with 2 μg/ml of mim-1 for 0, 10, 30, 60 and 120 minutes, respectively. Vitamin D receptor interaction was displaced competitively by 100× of cold probe. The cells were then treated with mim-1 for 2 to 3 hrs and VDR/VDRE supershifted with a 1:5 or 1:10 dilution of VDR polyclonal antibody 4707. Competitive displacement with cold probe and incubaton with 100× vitellogenin estrogen response element as a non-specific probe were included as […] controls with 2 hr mim-1 extracts. VDR/VDRE from MG63 cells was compared to recombinant VDR heterodimer (rVDRhd).

human bone marrow cells = test: FACS analysis of human bone marrow cell cultures (CD14+); assay type: cell-based; details: 2 μg/ml mim-1, 3 days
Protocol: Human bone marrow cells were cultured in IMDM with GM-CSF (50 ng/ml), IL3 (10 ng/ml) and 20 ng/ml SCF (controls) for 3 days −/+2 […] mim-1 and analyzed by FACS analysis. The remaining cells were cultured in colony formation assays an additional 14 days with the same growth factors minus or plus 2 μg/ml mim-1. Data is the average −/+ SEM of 3 separate experiments.
Human bone marrow cells were cultured in IMDM with GM-CSF (50 ng/ml), IL3 (10 ng/ml) and […] SCF (controls) for 3 days with or without 2 μg/ml mim-1. The cells were analyzed by FACS analysis. The remaining cells were cultured in colony formation assays an additional 14 days with the same growth factors with or without 2 μg/ml mim-1.

B1: mim-1: 35 kD osteoclast secreted chemokine-like protein, SEQ ID NO: 8, homologous with Lect2 (protein, listed as Gallus gallus)
chain: MPALSLIALLSLVSTAFARQWEVHPPQQQGRHWAQICSGNPFNRIRGCDRYGCGNYGASRQGKGEKHKGVDVICTDGSIVYAPFWGQLSGPIRFFHNGNAIDDGVQISGSGYCVKLVCIHPIRYHGQIQKGQQLGRMLPMQKVFPGIVSHIHVENCDQSDPTHLLRPIPDISPPFPQQDAHWAVVCAGNPTNEIRGCKDYGCGYFGAPRRNGKGEKHKGVDVICADGATVYAPFSGELSGPVKFFHNGNAIDDGVGIRGSGFCVKLLCIHPIRYNGRISKGQVLGRMLPMQRVFPGIISHIHVENCDRSDPTSNLERGKGESEMEV
modifications: amino acid sequence of mim-1 protein
concentration of maximal effect on mesenchymal stem cell migration ([1]; 4 hours, purified mim-1 in bottom chamber): approximately 100 ng/ml | concentration to stimulate migration lower than that to stimulate tyrosine phosphorylation ([1]; migration versus tyrosine phosphorylation): five- and ten-fold | inhibition of cell growth (AD10, ovarian cancer): concentration dependent inhibition of cell growth | inhibition of cell growth (A549, lung cancer): concentration dependent inhibition of cell growth | inhibition of cell growth (MDA231, breast cancer): concentration dependent inhibition of cell growth | cbfal binding above control levels ([2]; 20 ng/ml mim-1, 2 hrs): ~2 fold | concentration to stimulate cbfal binding lower than that to stimulate tyrosine phosphorylation ([2]; 20 ng/ml versus tyrosine phosphorylation): 5–10 fold | time of maximal cbfal binding ([2]; 2 μg/ml mim-1): 2 h | increase in binding of cbfal transcription factor to osteocalcin oligonucleotide probe ([2]; 2 μg/ml mim-1, MG63 cells): five-fold | decrease in cbfal binding from maximum ([2]; 2 μg/ml mim-1, by 4 hours): ~30% | concentration of maximal effect on mineralization (MC3T3-E1 cells): 0.5 µg/mL | time of maximal activation of MAP kinase ([3]; 2 μg/ml mim-1): 3 min | concentration of maximal activation of MAP kinase ([3]; not shown): 1 to 2 µg/mL | osteoclast-like cell differentiation (mouse marrow macrophage): effectively blocks osteoclast-like cell differentiation | effect on cell proliferation (mesenchymal stem cells): no effect | Vitamin D receptor binding to the VDRE [4]: stimulated Vitamin D receptor binding to the VDRE in a time dependent manner | proportion of CD14+ cells (human bone marrow cells): increase in the proportion of cells that are CD14^+
